US12115223B2, “Conjugate of biotin-modified dimer and phthalocyanine dye” (THE UNIVERSITY OF TOKYO, priority 2021, dated 2024)

T1: Recombinant Human CEACAM-5/CD66e Protein (Homo sapiens, UniProt P06731)
T1 construct: purchased R & D SYSTEMS
T1 sequence (P06731 35-676): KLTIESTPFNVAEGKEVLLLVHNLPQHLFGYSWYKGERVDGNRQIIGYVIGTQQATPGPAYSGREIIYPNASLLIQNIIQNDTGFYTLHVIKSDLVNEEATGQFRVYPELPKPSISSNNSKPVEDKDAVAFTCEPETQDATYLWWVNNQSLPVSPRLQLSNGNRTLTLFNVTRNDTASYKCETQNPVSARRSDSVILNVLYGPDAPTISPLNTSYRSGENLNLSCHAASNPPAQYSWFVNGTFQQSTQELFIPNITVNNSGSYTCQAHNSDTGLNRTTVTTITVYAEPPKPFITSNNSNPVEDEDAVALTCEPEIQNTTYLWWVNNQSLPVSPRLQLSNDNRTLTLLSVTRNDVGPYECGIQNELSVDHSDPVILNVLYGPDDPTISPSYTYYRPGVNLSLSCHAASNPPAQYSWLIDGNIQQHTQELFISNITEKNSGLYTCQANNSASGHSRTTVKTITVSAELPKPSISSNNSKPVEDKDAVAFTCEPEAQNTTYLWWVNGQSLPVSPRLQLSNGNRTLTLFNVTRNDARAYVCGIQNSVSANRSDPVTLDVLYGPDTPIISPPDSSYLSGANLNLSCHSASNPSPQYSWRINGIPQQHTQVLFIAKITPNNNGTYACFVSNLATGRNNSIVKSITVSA

B1: CEA-V2122: scFv-type anti-CEACAM5 antibody bound with mutant streptavidin V2122 via an amino acid linker (SEQ ID NO: 3) (protein)
chain: QVKLEQSGAEVVKPGASVKLSCKASGFNIKDSYMHWLRQGPGQRLEWIGWIDPENGDTEYAPKFQGKATFTTDTSANTAYLGLSSLRPEDTAVYYCNEGTPTGPYYFDYWGQGTLVTVSSGGGGSGGGGSGGGGSENVLTQSPSSMSVSVGDRVNIACSASSSVPYMHWLQQKPGKSPKLLIYLTSNLASGVPSRFSGSGSGTDYSLTISSVQPEDAATYYCQQRSSYPLTFGGGTKLEIKGGGGSGGGGAEAGITGTWSDQLGDTFIVTAGADGALTGTYENAVGGAESRYVLTGRYDSAPATDGSGTALGWTVAWKNNSKNAHSATTWSGQYVGGADAKINTQWLLTSGTTNANAWKSTLVGHDTFTKVKPSAASHHHHHH
B2: CEA-V2122-FITC: purified CEA-V2122 protein labeled using Fluorescein Labeling Kit-NH2 (conjugate)
chain: B1 chain

Assays:
[1] = target: T1, Recombinant Human CEACAM-5/CD66e Protein; assay: SPR (Biacore T200) affinity of CEA-V2122 for the antigen CEACAM5; type: binding; conditions: bivalent analysis
Experimental: The affinity of CEA-V2122 for the antigen CEACAM5 was evaluated using a surface plasmon resonance (SPR) measuring device, Biacore T200 (GE Healthcare Life Sciences). Specifically, Recombinant Human CEACAM-5/CD66e Protein, CF (R & D SYSTEMS) was immobilized on Sensor Chip CMS (GE Healthcare Life Sciences) using an amine-coupling kit (GE Healthcare Life Sciences). The fmal amount of the ligand immobilized was 279 RU. Moreover, with regard to the purified CEA-V2122, two-fold serial dilutions from 1E-08 M to 6.25E-10 M were prepared as analytes. Regarding interaction analysis, data were obtained by single-cycle kinetics analysis. Using Biacore T200 Evaluation Software, version 2.0, the obtained data were subjected to curve fitting in a bivalent analysis mode, and the following values were obtained: ka1=3.208E+5, and kd1=3.461E-7.

[2] = system: CEACAM5-positive MKN-45 cells and CEACAM5-negative DLD1 cells; assay: Cell staining of CEACAM5-expressing cell line using FITC-labeled CEA-V2122; type: cell-based, human; conditions: 20 nM CEA-V2122-FITC
Experimental: In order to stain a CEACAM5 expression-positive cancer cell line, FITC labeling was carried out on the cell line, using 100 μg of a purified CEA-V2122 protein. Specifically, labeling was carried out using Fluorescein Labeling Kit-NH2 (DOJINDO LABORATORIES) in accordance with the dosage and administration described in the operating manual included with the kit, and the obtained product was defined to be CEA-V2122-FITC. Specific staining of the CEACAM5 expression-positive cancer cell line is as follows. That is, CEACAM5-positive human stomach cancer-derived MKN-45 cells and CEACAM5-negative human colon cancer-derived DLD1 cells were each seeded on a CELLSTAR, μClear, 96-well plate (Greiner) to a cell density of 2.0×10^4 cells/well, and thereafter, the cells were cultured overnight. Subsequently, a culture solution containing 20 nM CEA-V2122-FITC and 1 μM Hoechist was added to the 96-well plate to a concentration of 100 μL/well, and the obtained mixture was then reacted at 4° C. for 30 minutes. Thereafter, each image was taken using In Cell Analyzer 6000 (GE Healthcare Life Sciences).

Molecule | KD=kd1/ka1 [1] | localisation of CEACAM5 after binding (time-series images of MKN45 cells, FIG. 6) [2] | recognition of CEACAM5 on cells (stained cell images, FIG. 5) ([2]; 4° C., 30 minutes)
B1 | 1.078E-12 |  | 
B2 |  | the CEACAM5 stays on the surface of the cell membrane | specifically recognizes CEACAM5 on the surface of the cell membrane
